Experiment [1] deals with GFAP purified from human brain (human) (UniProt P14136). As to the kind of experiment: chemiluminescent sandwich ELISA; GFAP-2 capture, HRP-GFAP-6 detection; GFAP standard 10 pg/ml. (In an ELISA, binding on a coated surface is turned into a signal by an enzyme label.)
Experiment [2] shares this target. The experiment can be described thus: chemiluminescent sandwich ELISA; GFAP-2 capture, HRP-GFAP-6 detection; GFAP standard 40 pg/ml.
Experiment [3] has the same target. As to the kind of experiment: chemiluminescent sandwich ELISA; GFAP-2 capture, HRP-GFAP-6 detection; GFAP standard 20 pg/ml.
Experiment [4] has the same target. As to the kind of experiment: chemiluminescent sandwich ELISA; GFAP-2 capture, HRP-GFAP-6 detection; GFAP standard 80 pg/ml.
Experiment [5] has the same target. As to the kind of experiment: chemiluminescent sandwich ELISA; GFAP-2 capture, HRP-GFAP-6 detection; GFAP standard 320 pg/ml.
For experiment [6] the target is unchanged. As to the kind of experiment: chemiluminescent sandwich ELISA; GFAP-2 capture, HRP-GFAP-6 detection; GFAP standard 160 pg/ml.
For experiment [7] the target is unchanged. The experiment can be described thus: chemiluminescent sandwich ELISA; GFAP-2 capture, HRP-GFAP-6 detection; GFAP standard 640 pg/ml.

Sequence of GFAP purified from human brain (human) (P14136 whole entry): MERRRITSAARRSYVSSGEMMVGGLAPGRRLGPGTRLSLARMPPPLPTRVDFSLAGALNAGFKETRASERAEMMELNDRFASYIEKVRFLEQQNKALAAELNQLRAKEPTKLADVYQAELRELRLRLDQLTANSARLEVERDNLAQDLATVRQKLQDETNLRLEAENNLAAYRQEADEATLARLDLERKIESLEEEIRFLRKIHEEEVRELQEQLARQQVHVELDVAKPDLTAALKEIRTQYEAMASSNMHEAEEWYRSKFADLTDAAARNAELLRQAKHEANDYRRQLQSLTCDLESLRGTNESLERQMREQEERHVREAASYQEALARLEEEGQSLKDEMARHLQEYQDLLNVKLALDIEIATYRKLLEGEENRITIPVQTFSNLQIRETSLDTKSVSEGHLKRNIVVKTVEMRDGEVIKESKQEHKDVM

B1: GFAP-6 (antibody, V domains shown)
VH: EVQLQQSGAEFVKPGASVKLSCTASGFNIKDTDMHWVRQRPEQGLESIGLIDPAIGNTKYDPKFQGKATITADTSSNAAYLQLSSLTSEDTAVYYCARSDRYLAWFAYWGQGTLVTVSA
VL: DIVMTQSPATLSVTPGDRVSLSCRASQSISDFLHWYQQKSHGSPRLLIKYSSQSISGIPSRFSGSGSGSDFTLSINSVEPEDVGVYYCQNGHTFPYTFGGGTKLEIK
On to B1, for which the Relative Light Unit (rlu) in experiment [1] is 3640 rlu; in experiment [2], 22700 rlu; in experiment [3] it was 7420 rlu; in experiment [4], 72700 rlu; in experiment [5] it was 487000 rlu; in experiment [6], 208000 rlu. Also, in experiment [7], the Relative Light Unit (rlu) stood at 1.12e+06 rlu.

Source of the values: patent US20210347914A1.
